From patent US6762290

How the values were obtained:
[1] = target: VEGFR2 (KDR) extracellular domain/Fc (Homo sapiens) (UniProt P35968); assay: filter; settings: 2'-F pyrimidines
c-Met/Fc = c-Met/Fc (UniProt P08581); assay: filter; settings: 2'-F pyrimidines
[2] = target: VEGFR1 (Flt-1) extracellular domain/Fc (UniProt P17948); assay: filter; settings: 2'-F pyrimidines; HBSMC, 37 C
[3] = target: VEGF receptors on HUVEC (VEGFR2/KDR) (Homo sapiens) (UniProt P35968); assay: competition; settings: 2'-F pyrimidines; inhibition of 125I-VEGF-165 binding to HUVEC
VEGF receptors on HUVEC (VEGFR2/KDR) (Homo sapiens), sequence (P35968 20-1356): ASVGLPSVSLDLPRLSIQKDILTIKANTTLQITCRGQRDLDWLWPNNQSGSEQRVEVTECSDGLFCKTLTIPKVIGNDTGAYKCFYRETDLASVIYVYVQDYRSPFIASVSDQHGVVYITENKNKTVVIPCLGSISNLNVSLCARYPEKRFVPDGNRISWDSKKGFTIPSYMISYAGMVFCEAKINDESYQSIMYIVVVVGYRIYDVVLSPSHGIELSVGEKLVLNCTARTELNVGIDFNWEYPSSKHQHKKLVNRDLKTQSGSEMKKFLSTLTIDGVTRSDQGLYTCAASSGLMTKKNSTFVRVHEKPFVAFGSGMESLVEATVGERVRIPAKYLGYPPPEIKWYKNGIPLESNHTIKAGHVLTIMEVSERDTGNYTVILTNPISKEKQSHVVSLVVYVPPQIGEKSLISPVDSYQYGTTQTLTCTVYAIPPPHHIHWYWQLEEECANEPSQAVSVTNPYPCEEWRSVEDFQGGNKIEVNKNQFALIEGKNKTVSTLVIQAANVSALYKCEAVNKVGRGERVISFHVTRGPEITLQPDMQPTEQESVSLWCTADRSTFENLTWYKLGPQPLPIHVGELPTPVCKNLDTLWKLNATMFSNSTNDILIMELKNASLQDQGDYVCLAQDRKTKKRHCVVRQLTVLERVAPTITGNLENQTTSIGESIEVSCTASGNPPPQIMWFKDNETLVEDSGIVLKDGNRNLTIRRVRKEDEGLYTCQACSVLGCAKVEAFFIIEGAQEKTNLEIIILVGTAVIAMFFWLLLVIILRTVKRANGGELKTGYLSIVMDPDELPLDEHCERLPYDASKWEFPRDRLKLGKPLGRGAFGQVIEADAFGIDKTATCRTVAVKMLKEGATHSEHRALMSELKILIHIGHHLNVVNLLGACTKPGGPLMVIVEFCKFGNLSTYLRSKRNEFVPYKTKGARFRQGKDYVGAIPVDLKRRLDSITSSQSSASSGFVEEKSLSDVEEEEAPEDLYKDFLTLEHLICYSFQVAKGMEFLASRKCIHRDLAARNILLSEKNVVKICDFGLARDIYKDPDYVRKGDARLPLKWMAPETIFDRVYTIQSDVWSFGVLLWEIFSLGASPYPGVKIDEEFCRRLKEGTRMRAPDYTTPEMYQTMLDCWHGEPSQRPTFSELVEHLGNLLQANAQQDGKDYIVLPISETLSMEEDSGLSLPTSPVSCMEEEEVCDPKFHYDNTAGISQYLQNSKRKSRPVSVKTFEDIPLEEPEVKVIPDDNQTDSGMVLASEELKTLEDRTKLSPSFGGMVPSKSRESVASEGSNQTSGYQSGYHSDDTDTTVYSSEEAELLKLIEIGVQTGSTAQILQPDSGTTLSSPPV

VEGFR2 (KDR) extracellular domain/Fc (Homo sapiens), sequence (P35968 20-764): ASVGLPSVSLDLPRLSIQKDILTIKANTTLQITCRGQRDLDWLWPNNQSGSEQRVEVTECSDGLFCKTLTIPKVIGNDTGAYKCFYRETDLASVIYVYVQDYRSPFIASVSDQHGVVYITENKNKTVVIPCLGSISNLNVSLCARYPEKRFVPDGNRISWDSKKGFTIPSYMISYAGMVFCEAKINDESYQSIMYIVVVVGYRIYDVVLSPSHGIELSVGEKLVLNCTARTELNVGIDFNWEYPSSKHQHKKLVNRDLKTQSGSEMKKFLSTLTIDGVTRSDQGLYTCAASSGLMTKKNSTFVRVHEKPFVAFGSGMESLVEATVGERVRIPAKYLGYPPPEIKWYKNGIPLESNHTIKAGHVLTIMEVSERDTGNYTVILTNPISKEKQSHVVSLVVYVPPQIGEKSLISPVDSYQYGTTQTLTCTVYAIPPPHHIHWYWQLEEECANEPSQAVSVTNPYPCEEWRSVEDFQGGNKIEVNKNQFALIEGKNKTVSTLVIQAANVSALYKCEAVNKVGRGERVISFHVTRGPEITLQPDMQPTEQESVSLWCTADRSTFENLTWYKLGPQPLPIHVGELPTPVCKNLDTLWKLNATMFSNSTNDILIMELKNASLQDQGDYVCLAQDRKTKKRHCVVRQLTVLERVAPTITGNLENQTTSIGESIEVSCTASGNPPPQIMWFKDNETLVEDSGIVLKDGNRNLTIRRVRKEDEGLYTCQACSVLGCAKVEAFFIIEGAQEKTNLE
c-Met/Fc, sequence (P08581 25-932): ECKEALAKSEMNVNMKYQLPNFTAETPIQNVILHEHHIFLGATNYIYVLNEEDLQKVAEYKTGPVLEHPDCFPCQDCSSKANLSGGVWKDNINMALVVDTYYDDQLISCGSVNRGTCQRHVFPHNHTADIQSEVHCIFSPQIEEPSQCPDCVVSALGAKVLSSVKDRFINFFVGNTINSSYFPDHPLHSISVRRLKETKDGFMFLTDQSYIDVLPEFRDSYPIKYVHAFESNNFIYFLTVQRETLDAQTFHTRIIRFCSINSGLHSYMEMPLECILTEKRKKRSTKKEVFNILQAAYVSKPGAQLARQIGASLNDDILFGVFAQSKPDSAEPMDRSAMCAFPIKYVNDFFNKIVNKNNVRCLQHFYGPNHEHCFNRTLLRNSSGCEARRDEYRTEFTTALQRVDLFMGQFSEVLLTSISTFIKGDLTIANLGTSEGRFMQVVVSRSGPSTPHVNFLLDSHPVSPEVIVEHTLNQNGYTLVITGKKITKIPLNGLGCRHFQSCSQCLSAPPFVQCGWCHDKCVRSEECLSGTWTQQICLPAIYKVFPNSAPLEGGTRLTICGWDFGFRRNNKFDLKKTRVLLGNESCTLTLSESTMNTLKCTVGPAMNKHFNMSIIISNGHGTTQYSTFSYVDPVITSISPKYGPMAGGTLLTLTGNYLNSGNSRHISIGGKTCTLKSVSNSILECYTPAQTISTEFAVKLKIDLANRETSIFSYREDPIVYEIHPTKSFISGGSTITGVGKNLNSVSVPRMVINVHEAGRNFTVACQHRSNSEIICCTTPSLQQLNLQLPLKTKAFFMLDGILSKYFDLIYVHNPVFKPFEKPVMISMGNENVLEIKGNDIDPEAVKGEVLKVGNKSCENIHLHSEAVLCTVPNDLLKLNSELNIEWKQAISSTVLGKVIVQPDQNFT
VEGFR1 (Flt-1) extracellular domain/Fc, sequence (P17948 27-758): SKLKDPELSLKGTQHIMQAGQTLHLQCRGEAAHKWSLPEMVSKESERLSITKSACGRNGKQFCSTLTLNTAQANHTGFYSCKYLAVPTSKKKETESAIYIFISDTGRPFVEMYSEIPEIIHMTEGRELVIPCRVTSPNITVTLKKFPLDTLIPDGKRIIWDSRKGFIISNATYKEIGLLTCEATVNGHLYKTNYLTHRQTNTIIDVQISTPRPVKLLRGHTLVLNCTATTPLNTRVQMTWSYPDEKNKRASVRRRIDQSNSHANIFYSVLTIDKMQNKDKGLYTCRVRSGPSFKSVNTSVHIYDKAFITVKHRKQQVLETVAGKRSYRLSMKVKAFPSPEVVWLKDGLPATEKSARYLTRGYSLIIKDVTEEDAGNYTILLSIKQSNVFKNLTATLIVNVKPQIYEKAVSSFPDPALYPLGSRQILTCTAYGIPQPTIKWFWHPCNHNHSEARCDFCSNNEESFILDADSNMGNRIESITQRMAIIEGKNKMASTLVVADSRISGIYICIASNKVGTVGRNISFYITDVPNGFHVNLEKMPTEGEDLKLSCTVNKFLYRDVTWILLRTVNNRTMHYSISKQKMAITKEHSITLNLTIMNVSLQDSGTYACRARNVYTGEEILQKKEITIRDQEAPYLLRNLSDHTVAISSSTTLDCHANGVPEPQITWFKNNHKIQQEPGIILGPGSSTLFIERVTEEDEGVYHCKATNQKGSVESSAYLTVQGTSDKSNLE

Sequence: GGGAGGACGAUGCGGNNNNNNNNNNNNNNNNNNNNNNNNNNNNNNNNNNNNNNNNCAGACGACUCGCCCGA [KDR SELEX round 6 pool]
- Kd ([1]; HBSMC (Mg, Ca), 37 C): 440 pM

Sequence: GGGAGGACGAUGCGGAGCACUUGACCCACNACCAGAAAGCCAGCCCAGACGACUCGCCCGA [K6]
- Kd ([1]; 30N clone): 980 pM

Sequence: GGGAGGACGAUGCGGAUCAUACCGGGUCAUAACACCGNUCACGGGGCCUUNUCGUCAGACGACUCGCCCGA [K24]
- Kd ([1]; circularly permuted family member): 970 pM

Sequence: GGGAGGACGAUGCGGNNNNNNNNNNNNNNNNNNNNNNNNNNNNNNNNNNNNNNNNCAGACGACUCGCCCGA [KDR SELEX round 5 pool]
- Kd (c-Met/Fc; specificity control for Fc binding): 74000 pM
- Kd ([1]; HBSMC, 37 C): 830 pM
- Kd ([1]; comparison with cMet/Fc): 760 pM

Sequence: GGGAGGACGAUGCGGNNNNNNNNNNNNNNNNNNNNNNNNNNNNNNNNNNNNNNNNCAGACGACUCGCCCGA [Flt-1 SELEX round 5 pool]
- Kd [2]: 93 pM

Sequence: GGGAGGACGAUGCGGNNNNNNNNNNNNNNNNNNNNNNNNNNNNNNNNNNNNNNNNCAGACGACUCGCCCGA [KDR SELEX round 2 pool]
- Kd ([1]; HBSMC, 37 C): 680 pM

Sequence: GGGAGGACGAUGCGGNNNNNNNNNNNNNNNNNNNNNNNNNNNNNNNNNNNNNNNNCAGACGACUCGCCCGA [KDR SELEX round 4 pool]
- Kd ([1]; HBSMC, 37 C): 581 pM

Sequence: GGGAGGACGAUGCGGNNNNNNNNNNNNNNNNNNNNNNNNNNNNNNNNNNNNNNNNCAGACGACUCGCCCGA [KDR SELEX round 3 pool]
- Kd ([1]; HBSMC, 37 C): 800 pM

Sequence: GGGAGGACGAUGCGGNNNNNNNNNNNNNNNNNNNNNNNNNNNNNNNNNNNNNNNNCAGACGACUCGCCCGA [40N7 starting random library (round 0)]
- Kd (c-Met/Fc; specificity control): 58000 pM
- Kd [2]: 200 pM
- Kd ([1]; HBSMC, 37 C): 36000 pM
- Kd ([1]; as printed, differs from 36 ± 3 nM in Table 1 legend): 361000 pM

Sequence: GGGAGGACGAUGCGGACANAUAACACAGGGCCUGCUUGGAUCACACUGAUUGCGCCCAGACGACUCGCCCGA [K17]
- Kd [1]: 240 pM
- IC50 [3]: 163000 pM
